Experimental findings from patent US20230149516A1, “USE OF PEPTIDYLGLYCINE ALPHA-AMIDATING MONOOXYGENASE (PAM) FOR THERAPEUTIC PURPOSE” (PAM THERAGNOSITICS GMBH, priority 2020, published 2023) are described below.

For one data set, the system named is endogenous human ADM-Gly. As to the kind of experiment: Conversion of endogenous ADM-Gly to bio-ADM in human Li-Heparin plasma with exogenous recombinant PAM. It is filed as biochemical. The following applies: 37° C. The text has this: ADM-Gly was quantified as based on Weber et al. (Weber et al. 2017. JALM 2(2): 222-233) for bioactive ADM with the following modifications: the tracer-antibody used for ADM-Gly detection, labelled with MACN-acridinium-NHS, was directed to the C-terminal glycine of ADM-Gly. The assay was calibrated with synthetic ADM-Gly. The limit of detection (LOD) was 10 pg/mL of ADM-Gly. Cross-reactivity of antibody directed to the C-terminal glycine of ADM with bio-ADM was in the range between 6 and 50% in a concentration dependent manner. All determined ADM-Gly concentrations were corrected for cross-reactivity as follows: For each ADM-Gly quantification additional quantification of bio-ADM in corresponding samples was performed using the Sphingotest® bio-ADM immunoassay. […] The determined signal (RLU) was used to calculate the false-positive ADM-Gly concentration (pg/mL) using the ADM-Gly calibration curve. This concentration was subtracted from the initially determined ADM-Gly concentration.
In a further experiment we investigated the formation of bio-ADM from endogenous ADM-Gly by native human plasma PAM and the effect of addition of exogenous recombinant human PAM. […] The concentration of bio-ADM in the reaction sample was quantified using the Sphingotest® bio-ADM immunoassay as described recently (Weber et al. 2017. JALM 2(2): 222-233). […]

Data set [1] is described as follows: Half-life of recombinant PAM in rats (example 10, one-phase decay model). The note with it: example 10, single i.v. dose, FIG. 22. Type of data set: in vivo. On the procedure: FIG. 22: Half-life of recombinant PAM in rats, determined from one-phase decay model.
Endotoxin-free, recombinant PAM (SinoBiological) was buffer exchanged into sterile phosphate buffer saline (PBS, Dulbecco) and adjusted to 50 μg/mL. Sterile ascorbate solution for injection (200 mg/mL, vitamin C 1000, WÖRWAG Pharma) was purchased in a local pharmacy and adjusted under sterile conditions with PBS to 40 mg/mL. For combined injections of PAM and ascorbate, the compounds were prepared separately in equal volumes (100 μg/mL or 80 mg/mL for PAM and ascorbate, respectively). Both compounds were combined directly prior to injection to result in concentrations of 50 μg/mL for PAM and 40 mg/mL for ascorbate. Sterile PBS was used as placebo. All samples were stored at −80° C. until use. Animals, male Wistar rats, 2-3 month of age, were assigned into 4 groups (placebo, ascorbate, PAM, PAM+ascorbate) with 3 animals per group. Each animal in the individual group received 500 μl of the respective compound intravenously as a single dose injection. Blood sampling was performed as Li-Heparin 30 min prior to and 15, 30, 45, 60, 120, 180, 240 and 300 min post injection. PAM activities were determined as described in example 3.

Another data set deals with circulating ADM-Gly. As to the kind of experiment: bio-ADM increase after administration of recombinant human PAM in rats (example 9). It is filed as in vivo, Wistar-rat. The following applies: intravenously administered recombinant human PAM. Here is the method: Two animals (Wistar-rat, male, 2-3 month of age) received 17 μg of recombinant human PAM (see example 1) as a single dose in a total volume of 500 μl (in phosphate-buffered saline). One control-animal received 500 μl of PBS. Blood sampling (Li-Heparin Plasma) was carried out 30 min prior to application and 30 min, 2 h, 4 h, 8 h, 24 h and 48 h, respectively, after application.

The test system of another data set is bio-ADM. As to the kind of experiment: Circulating bio-ADM concentration in rats after intravenous injection of PAM, ascorbate or both. It is filed as in vivo, Wistar rats.
In another data set the test system is PAM activity. Kind of data set: Circulating PAM activity in rats after intravenous injection of PAM, ascorbate or both, measured without exogenous ascorbate. It is filed as in vivo, Wistar rats.

B1: recombinant human PAM: Recombinant human peptidylglycine alpha-amidating monooxygenase, aa 21-834, SEQ ID No. 10 (Example 1); Example 10 used endotoxin-free recombinant PAM from SinoBiological (protein, listed as Homo sapiens)
chain: SPLSVFKRFKETTRPFSNECLGTTRPVVPIDSSDFALDIRMPGVTPKQSDTYFCMSMRIPVDEEAFVIDFKPRASMDTVHHMLLFGCNMPSSTGSYWFCDEGTCTDKANILYAWARNAPPTRLPKGVGFRVGGETGSKYFVLQVHYGDISAFRDNNKDCSGVSLHLTRLPQPLIAGMYLMMSVDTVIPAGEKVVNSDISCHYKNYPMHVFAYRVHTHHLGKVVSGYRVRNGQWTLIGRQSPQLPQAFYPVGHPVDVSFGDLLAARCVFTGEGRTEATHIGGTSSDEMCNLYIMYYMEAKHAVSFMTCTQNVAPDMFRTIPPEANIPIPVKSDMVMMHEHHKETEYKDKIPLLQQPKREEEEVLDQGDFYSLLSKLLGEREDVVHVHKYNPTEKAESESDLVAEIANVVQKKDLGRSDAREGAEHERGNAILVRDRIHKFHRLVSTLRPPESRVFSLQQPPPGEGTWEPEHTGDFHMEEALDWPGVYLLPGQVSGVALDPKNNLVIFHRGDHVWDGNSFDSKFVYQQIGLGPIEEDTILVIDPNNAAVLQSSGKNLFYLPHGLSIDKDGNYWVTDVALHQVFKLDPNNKEGPVLILGRSMQPGSDQNHFCQPTDVAVDPGTGAIYVSDGYCNSRIVQFSPSGKFITQWGEESSGSSPLPGQFTVPHSLALVPLLGQLCVADRENGRIQCFKTDTKEFVREIKHSSFGRNVFAISYIPGLLFAVNGKPHFGDQEPVQGFVMNFSNGEIIDIFKPVRKHFDMPHDIVASEDGTVYIGDAHTNTVWKFTLTEKLEHRSVKKAGIEVQEIKEAEAVVGS
As to B1, the “increase of the bio-ADM synthesis rate from endogenous human ADM-Gly (averaged factor)” value in the data set on endogenous human ADM-Gly (500 ng/ml exogenous recombinant PAM (approximate doubling of PAM concentration) in human Li-Heparin plasma pool with high ADM-Gly, at each time-point, vs native PAM alone) was 1.8. In the data set with endogenous human ADM-Gly (500 ng/ml exogenous recombinant PAM in human Li-Heparin plasma), the “ADM-Gly consumption / shift of ADM-Gly/bio-ADM ratio” value is given as “faster shift of the ADM-Gly/bio-ADM ratio towards bio-ADM”. In addition, in data set [1], the “half-life of recombinant human PAM in rats” value amounted to 52.7 min. In addition, the “time of maximum bio-ADM increase” value in the data set on circulating ADM-Gly was determined as 4 h; in the data set with bio-ADM (intravenously administered, example 10), 30 min. Also, the “bio-ADM concentration elevated by the factor (normalized to placebo)” value in the data set on bio-ADM (after 15 min) is recorded as 1.8; in the data set on bio-ADM (after 30 min), 2.4; in the data set with bio-ADM (after 45 min) it was 2; with bio-ADM (after 60 min), “not significantly different”. The “bio-ADM concentration compared to the Placebo group” value in the data set on bio-ADM (after 120 minutes) was “not significantly different”. The “maximal elevation of PAM activity compared to placebo group (factor)” value in the data set with PAM activity (15 minutes past injection) turned out to be 6. Also, the “PAM activity compared to placebo group” value with PAM activity (120 min past injection) is given as “not significantly different”. Moreover, the “time of maximal elevation of PAM activity past injection” value in the data set with PAM activity (single i.v. injection) was found to be 15 min. For the same molecule, in the data set on PAM activity (single i.v. injection of 500 μl (PAM 50 μg/mL, ascorbate 40 mg/mL), vs placebo), the “elevation of circulating PAM activity” value was “highly significant elevation”. Also, the “time PAM activity remained elevated after injection” value in the data set with PAM activity (single i.v. injection, significantly elevated for PAM and the combination) came to 60 min.
